± gives the standard error. Fewer inactive variants are shown than the library holds.
B1: glmS ribozyme (parent)
chain: AUAAAAGCGCCAGAACUACAGAAAUGUAGUUGACGAGGAGGAGGUUUAUCGAAUUUUCGGCGGAUGCCUCCAAA

What was measured:
Conditions in all cases: with glucosamine-6-phosphate
[1] = variants of: B1; assay: self-cleavage kobs at 640 uM GlcN6P; higher = faster cleavage; RNA array
Summary of the method: (§1)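 Weighted Michaelis–Menten fits across concentrations supplied kcat and KM, based on kobs from one- or two-exponential decay fits to normalised per-tile medians. The data came from barcoded ribozyme variants transcribed in situ by E. coli RNA polymerase on sequenced MiSeq chips and tracked at 37 °C by a hybridised Cy3 probe. Glucosamine-6-phosphate (40 μM to 10 mM) in HEPES/KCl/Mg(OAc)2 buffer was flowed in.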

[2] = variants of: B1; assay: self-cleavage kobs at 2500 uM GlcN6P; higher = faster cleavage; RNA array
Summary of the method: as §1

[3] = variants of: B1; assay: self-cleavage kobs at 10000 uM GlcN6P; higher = faster cleavage; RNA array
Summary of the method: as §1

| Variant | self-cleavage kobs at 640 uM GlcN6P [1] [s⁻¹] | self-cleavage kobs at 2500 uM GlcN6P [2] [s⁻¹] | self-cleavage kobs at 10000 uM GlcN6P [3] [s⁻¹] |
| --- | --- | --- | --- |
| U30G A39G G41U A48G U69C | < 1e-05 | < 1e-05 | < 1e-05 |
| A12U G37A U56G | 0.00137 ± 0.00022 | 0.00379 ± 0.00089 | – |
| C16G U31G U54G | 0.000146 ± 3.7e-05 | 0.000327 ± 5.9e-05 | – |
| U30A U55G C61U | < 1e-05 | – | < 1e-05 |
| G13A U56A C67A U69G | 0.000128 ± 3.8e-05 | – | – |
| G13U G35U G37U | < 1e-05 | – | – |
| C11G G13C A15G G43U G63C | < 1e-05 | < 1e-05 | – |
| U30G C34A U47A | < 1e-05 | – | – |
| A12U A33C G41U G62C | < 1e-05 | < 1e-05 | – |
| A14C A39G C70U | 0.000886 ± 0.00029 | – | – |
| G29A G44U U65C | < 1e-05 | < 1e-05 | – |
| U17C G44U U47C | < 1e-05 | – | – |
| A14G A33U G44U U47C G63U | < 1e-05 | < 1e-05 | < 1e-05 |
| C11A U56A C70U C71A | 0.000256 ± 7.9e-05 | – | – |
| G13A A53G G66A | 6.41e-05 ± 2.2e-05 | – | – |
| C11A A14G G43A U45G | 4.76e-05 ± 2e-05 | – | – |

| Variant | self-cleavage kobs at 640 uM GlcN6P [1] [s⁻¹] | self-cleavage kobs at 2500 uM GlcN6P [2] [s⁻¹] | self-cleavage kobs at 10000 uM GlcN6P [3] [s⁻¹] |
| --- | --- | --- | --- |
| G13U A39G C67A | 9.82e-05 ± 3.9e-05 | – | – |
| C11G C16U G37A U45C A64G | < 1e-05 | – | – |
| U30C G37U C58A C68G | 7.09e-05 ± 2.2e-05 | 0.000165 ± 3.6e-05 | – |
| A15C C16U U17A A18C C19A A36G G44U | < 1e-05 | – | – |
| U31C G32A U65G | 5.75e-05 ± 1.9e-05 | 0.000133 ± 3.3e-05 | – |
| A15C A33C A36C | < 1e-05 | – | – |
| A12U G32A A52U U54C C61G G63U C71A | < 1e-05 | < 1e-05 | – |
| C11A G38A U47C | < 1e-05 | – | – |
| A33U G35U U54A | < 1e-05 | – | < 1e-05 |
| C11U A36U G44C G62U | < 1e-05 | – | – |
| A14C C58A C67A C68G | 5.61e-05 ± 2.2e-05 | 4.77e-05 ± 1.6e-05 | – |
| A12C U54C C71U | 0.00422 ± 0.0017 | 0.0234 ± 0.0081 | – |
| A14G A52U C67U | 7.45e-05 ± 1.3e-05 | 0.00014 ± 3.1e-05 | – |
| C11G A48G C71U | < 1e-05 | < 1e-05 | – |
| C16U A39U G66U | 0.000779 ± 0.00014 | 0.00146 ± 0.00036 | – |
| A14G C34U | < 1e-05 | – | < 1e-05 |

Source: the supplement of paper PMC7125110
